{"source": "patent US20020068706A1", "key": {"CDK4/cyclin D1 complex": {"biological_target": "CDK4/cyclin D1 complex (UniProt P11802)", "sequence (P11802 whole entry, chain 1 of 2)": "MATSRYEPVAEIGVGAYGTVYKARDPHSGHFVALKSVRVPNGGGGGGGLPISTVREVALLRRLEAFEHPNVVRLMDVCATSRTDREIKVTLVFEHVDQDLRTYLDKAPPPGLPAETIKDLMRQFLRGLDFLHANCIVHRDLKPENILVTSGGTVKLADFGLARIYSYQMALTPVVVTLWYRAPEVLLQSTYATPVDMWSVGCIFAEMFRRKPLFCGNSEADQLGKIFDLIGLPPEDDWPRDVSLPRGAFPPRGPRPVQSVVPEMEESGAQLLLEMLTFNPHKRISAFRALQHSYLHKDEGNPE", "sequence (P24385 whole entry, chain 2 of 2, further chain)": "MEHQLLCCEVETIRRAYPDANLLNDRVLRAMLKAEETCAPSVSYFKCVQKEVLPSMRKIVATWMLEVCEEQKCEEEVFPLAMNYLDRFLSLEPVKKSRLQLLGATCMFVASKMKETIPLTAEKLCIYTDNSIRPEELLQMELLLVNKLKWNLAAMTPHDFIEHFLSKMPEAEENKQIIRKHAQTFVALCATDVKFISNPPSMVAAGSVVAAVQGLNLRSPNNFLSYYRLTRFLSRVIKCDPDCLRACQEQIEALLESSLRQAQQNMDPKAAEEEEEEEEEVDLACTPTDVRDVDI", "test": "cell-based or functional assay"}, "cdc2/cyclin B complex": {"biological_target": "cdc2/cyclin B complex (UniProt P06493)", "sequence (P06493 whole entry, one chain of several)": "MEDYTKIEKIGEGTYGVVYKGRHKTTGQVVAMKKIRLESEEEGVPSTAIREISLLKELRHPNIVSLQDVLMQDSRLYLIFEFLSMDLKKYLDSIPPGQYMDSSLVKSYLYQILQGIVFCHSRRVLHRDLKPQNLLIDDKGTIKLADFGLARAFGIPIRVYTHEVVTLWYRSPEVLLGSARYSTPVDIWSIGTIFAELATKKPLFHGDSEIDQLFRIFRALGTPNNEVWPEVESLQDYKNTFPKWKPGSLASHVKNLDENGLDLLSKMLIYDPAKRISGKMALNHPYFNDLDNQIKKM", "test": "cell-based or functional assay"}}, "data": [{"substance": "p27 (from UniProt P46527 1-198)", "values": [{"measurement": "IC50 of in vitro kinase assay (32P incorporation into Gst-Rb)", "setting": "CDK4/cyclin D1 complex", "value": 63, "unit": "nM"}, {"measurement": "IC50 of in vitro kinase assay (32P incorporation into Gst-Rb)", "setting": "cdc2/cyclin B complex", "value": 20, "unit": "nM"}]}]}
